Experimental data taken from patent US20180356429A1.

Columns and labels:
[1] = molecular target: Recombinant human IL-13 (R&D Systems, MN, catalog no. 213-ILB/CF) (human) (UniProt P35225); experiment: sandwich pair screen, 100 pg/mL recombinant IL-13, binder is detection Ab; capture Ab 14C9
[2] = molecular target: Recombinant human IL-13 (R&D Systems, MN, catalog no. 213-ILB/CF) (human) (UniProt P35225); experiment: sandwich pair screen, 100 pg/mL recombinant IL-13, binder is detection Ab; capture Ab 8C11
[3] = molecular target: Recombinant human IL-13 (R&D Systems, MN, catalog no. 213-ILB/CF) (human) (UniProt P35225); experiment: sandwich pair screen, 100 pg/mL recombinant IL-13, binder is detection Ab; capture Ab 11H4
[4] = molecular target: Recombinant human IL-13 (R&D Systems, MN, catalog no. 213-ILB/CF) (human) (UniProt P35225); experiment: sandwich pair screen, 100 pg/mL recombinant IL-13, binder is detection Ab; capture Ab MILR1444A
[5] = molecular target: Recombinant human IL-13 (R&D Systems, MN, catalog no. 213-ILB/CF) (human) (UniProt P35225); experiment: sandwich pair screen, negative (blank) signal, binder is detection Ab; capture Ab 4D7
[6] = molecular target: Recombinant human IL-13 (R&D Systems, MN, catalog no. 213-ILB/CF) (human) (UniProt P35225); experiment: sandwich pair screen, 100 pg/mL recombinant IL-13, binder is detection Ab; capture Ab 4D7
[7] = molecular target: Recombinant human IL-13 (R&D Systems, MN, catalog no. 213-ILB/CF) (human) (UniProt P35225); experiment: sandwich pair screen, 100 pg/mL recombinant IL-13, binder is detection Ab; capture Ab 32116
[8] = molecular target: Recombinant human IL-13 (R&D Systems, MN, catalog no. 213-ILB/CF) (human) (UniProt P35225); experiment: sandwich pair screen, negative (blank) signal, binder is detection Ab; capture Ab MILR1444A
[9] = molecular target: Recombinant human IL-13 (R&D Systems, MN, catalog no. 213-ILB/CF) (human) (UniProt P35225); experiment: sandwich pair screen, 100 pg/mL recombinant IL-13, binder is detection Ab; capture Ab 228B/C
[10] = molecular target: Recombinant human IL-13 (R&D Systems, MN, catalog no. 213-ILB/CF) (human) (UniProt P35225); experiment: sandwich pair screen, negative (blank) signal, binder is detection Ab; capture Ab 32116
[11] = molecular target: Recombinant human IL-13 (R&D Systems, MN, catalog no. 213-ILB/CF) (human) (UniProt P35225); experiment: sandwich pair screen, negative (blank) signal, binder is detection Ab; capture Ab 14C9
[12] = molecular target: Recombinant human IL-13 (R&D Systems, MN, catalog no. 213-ILB/CF) (human) (UniProt P35225); experiment: sandwich pair screen, negative (blank) signal, binder is detection Ab; capture Ab 8C11
[13] = molecular target: Recombinant human IL-13 (R&D Systems, MN, catalog no. 213-ILB/CF) (human) (UniProt P35225); experiment: sandwich pair screen, negative (blank) signal, binder is detection Ab; capture Ab 228B/C
[14] = molecular target: Recombinant human IL-13 (R&D Systems, MN, catalog no. 213-ILB/CF) (human) (UniProt P35225); experiment: sandwich pair screen, negative (blank) signal, binder is detection Ab; capture Ab 11H4

Recombinant human IL-13 (R&D Systems, MN, catalog no. 213-ILB/CF) (human), sequence (P35225 other isoform, or with tags, fused parts or gaps): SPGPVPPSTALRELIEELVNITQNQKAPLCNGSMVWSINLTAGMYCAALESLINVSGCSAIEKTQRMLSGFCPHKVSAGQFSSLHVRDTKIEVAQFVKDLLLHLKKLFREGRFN

Assay Signal Pos [1]: 33.2
Assay Signal Pos [2]: 4.1
Assay Signal Pos [3]: 2310
Assay Signal Pos [4]: 47.2
Assay Signal Neg (blank) [5]: 21.7
Assay Signal Pos [6]: 23.6
Assay Signal Pos [7]: 18.2
Assay Signal Neg (blank) [8]: 0.3
Assay Signal Pos [9]: 52.7
Assay Signal Neg (blank) [10]: 17.2
Assay Signal Neg (blank) [11]: 30
Assay Signal Neg (blank) [12]: 3.9
Assay Signal Neg (blank) [13]: 26.5
Assay Signal Neg (blank) [14]: 23.2
Substance: MAB213 (R&D Systems, MN, Cat. No. MAB213) (antibody)
